Measurements reported in paper PMC13108567 (2026).

Experiments:
[1] = target: human programmed cell death protein 1 on PD-1 hi transgenic Jurkat cells (human, UniProt Q15116 25-288); test: FACS
[2] = target: PD-1 biotinylated dimer (human, UniProt Q15116 25-288, biotin); test: BLI
Sequence of PD-1 biotinylated dimer (Q15116 25-170): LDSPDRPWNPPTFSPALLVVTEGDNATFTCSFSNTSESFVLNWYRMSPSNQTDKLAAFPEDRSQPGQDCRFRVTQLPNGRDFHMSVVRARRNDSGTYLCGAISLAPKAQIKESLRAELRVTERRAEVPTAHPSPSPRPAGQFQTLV

Sequence of human programmed cell death protein 1 on PD-1 hi transgenic Jurkat cells (Q15116 25-288): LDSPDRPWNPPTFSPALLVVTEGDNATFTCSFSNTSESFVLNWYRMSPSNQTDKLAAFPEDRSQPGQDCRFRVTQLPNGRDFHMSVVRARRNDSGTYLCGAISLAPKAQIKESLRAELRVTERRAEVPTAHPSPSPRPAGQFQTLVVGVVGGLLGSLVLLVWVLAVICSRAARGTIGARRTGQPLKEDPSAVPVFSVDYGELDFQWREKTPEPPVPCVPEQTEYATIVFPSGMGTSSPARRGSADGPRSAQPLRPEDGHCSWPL

Binder | EC50 [1] | Kd [2]
Fab of anti-PD-1 clone 135c139d6 (Fab, V domains shown) VH: EVQLVQSGAEVKKPGESLKISCKGSGYSFTNFYIHWVRQAPGQRLEWMGSIYPNYGDTAYNQKFKDRFVFSLDTSVSTAYLQISSLKAEDTAVYYCARGYSYAMDYWGQGTTVTVSS VL: DIQMTQSPSSVSASVGDRVTITCSASQGISGDLNWYQQKPGKAPKLLIYHTSSLHSGVPSRFSGSGSGTDFTLTISSLQPEDFATYYCQYYSKDLLTFGGGTKLEIK | 42 nM | 16 nM
scFv-His of anti-PD-1 clone 135c139d6 (scFv, V domains shown) VH: EVQLVQSGAEVKKPGESLKISCKGSGYSFTNFYIHWVRQAPGQRLEWMGSIYPNYGDTAYNQKFKDRFVFSLDTSVSTAYLQISSLKAEDTAVYYCARGYSYAMDYWGQGTTVTVSS VL: DIQMTQSPSSVSASVGDRVTITCSASQGISGDLNWYQQKPGKAPKLLIYHTSSLHSGVPSRFSGSGSGTDFTLTISSLQPEDFATYYCQYYSKDLLTFGGGTKLEIK | 162 nM | 10 nM
